Laboratory results taken from USRE43568.

Tests used:
[1] = molecular target: Fcγ receptors on monocytes (FcγRI and RII) (human); experiment: FACS on human monocytes, antibody 10 µg/ml
[2] = molecular target: human complement C3 (from human pooled serum) (human) (UniProt P01024); experiment: C3 ELISA, antibody coated, human pooled serum added
[3] = molecular target: Fcγ receptors on granulocytes (FcγRII and RIII) (human); experiment: FACS on human granulocytes, antibody 10 µg/ml

Substance	% monocytes binding antibody [1]	Bmax (OD405 at 10 µg/ml) [2]	% granulocytes binding antibody [3]
human IgG4 (CLB, the Netherlands), negative control (antibody)	9.4%		
HuMab 002 Fc variant IgG1v2 (L234A; L235A) (antibody)		0.133 OD405	
HuMab 002 Fc variant IgG4v1 (S228P; L235E) (antibody)	14.5%	0.104 OD405	1.6%
